In patent publication US20220062416A1:

Experiments:
[1] = target: PCSK9 antigen (SEQ ID NO: 53), human PCSK9 (human) (UniProt Q8NBP7); assay: flow cytometry, PCSK9 left bound to CHO-LDLR cells (anti-His-FITC), control IgG 100 nM
[2] = target: PCSK9 antigen (SEQ ID NO: 53), human PCSK9 (human) (UniProt Q8NBP7); assay: flow cytometry, PCSK9 left bound to CHO-LDLR cells (anti-His-FITC), control IgG 10 nM
[3] = target: PCSK9 antigen (SEQ ID NO: 53), human PCSK9 (human) (UniProt Q8NBP7); assay: flow cytometry, PCSK9 left bound to CHO-LDLR cells (anti-His-FITC), control IgG 1 nM
[4] = target: PCSK9 antigen (SEQ ID NO: 53), human PCSK9 (human) (UniProt Q8NBP7); assay: flow cytometry, PCSK9 left bound to CHO-LDLR cells (anti-His-FITC), control IgG 1000 nM
[5] = target: PCSK9 antigen (SEQ ID NO: 53), human PCSK9 (human) (UniProt Q8NBP7); assay: flow cytometry, PCSK9 left bound to CHO-LDLR cells (anti-His-FITC), control IgG 0.1 nM

- Fluorescence signal value [1]: 7520
- Fluorescence signal value [2]: 6960
- Fluorescence signal value [3]: 6730
- Fluorescence signal value [4]: 8920
- Fluorescence signal value [5]: 7000
Substance: IgG (antibody)
